According to patent US20220273713A1, “METHOD OF INHIBITING OR ACTIVATING GAMMA DELTA T CELLS” (The University of Melbourne, priority 2019, published 2022):

How the values were obtained:
[1] = system: LM-MEL-62 and LM-MEL-75 melanoma cells; assay: Tumor killing/inhibition assay: γδ T cells with melanoma cells 2:1, MTS and CD25; format: cell-based, human; conditions: γδ T cells : melanoma cells 2:1, three days, antibody 10 ug/ml
Protocol: In the following experiments, γδ T cells were enriched by MACS using PE-Cy7-conjugated anti-γδTCR followed by anti-phycoerythrin-mediated magnetic bead purification (Miltenyi Biotec). After enrichment CD3^+ Vδ2^+γδ T cells were further purified by sorting using an Aria III (BD). […] LM-MEL-62 and LM-MEL-75 melanoma cells were plated out 1×10^4 per well in a 96 well flat-bottom plate In RPMI1640 media supplemented with 10% FBS and left to adhere overnight. […] All conditions were repeated in triplicate. Cells were incubated at 37 degrees and on day 3 Vd2+ cells were acquired by flow cytometry. Live cells were gated and activation determined by analysis of CD25 expression. Melanoma cell viability was determined by MTS assay. MTS reagent was added to RPMI media at a 1:5 ratio and 100 ul added per well. Cells were incubated at 37 degrees for 30 minutes and the plate was read on a Spectrostar nano plate reader at 490 nm. […] Cultures were performed with γδ T cells and melanoma cells (LM-MEL-75 or LM-MEL-62) in a 2:1 ratio.

γδ T cells = assay: Identification of BTN2A1 agonistic antibodies: CD25 and interferon γ of expanded γδ T cells; format: cell-based, human; conditions: 10 μg/ml antibody overnight, vs isotype control BM4
Protocol: In some experiments γδ T cells were enriched by MACS using PE-Cy7-conjugated anti-γδTCR followed by anti-phycoerythrin-mediated magnetic bead purification (Miltenyi Biotec). After enrichment CD3+Vδ2+ γδ T cells were further purified by sorting using an Aria III (BD). Enriched γδ T cells were stimulated in vitro for 48 h with plate-bound anti-CD3ε (OKT3, 10 ug/ml, Bio-X-Cell), soluble anti-CD28 (CD28.2, 1 ug/ml, BD Pharmingen), phytohemagglutinin (0.5 μg/ml, Sigma), IL-15 (50 ng/ml), and recombinant human IL-2 (100 U/ml, PeproTech), followed by maintenance with IL-2 and IL-15 for 14-21 d. Cells were cultured in complete medium consisting of a 50:50 (v/v) mixture of RPMI-1640 and AIM-V (Invitrogen) supplemented with 10% (v/v) FCS (JRH Biosciences), penicillin (100 U/ml), streptomycin (100 μg/ml), Glutamax (2 mM), sodium pyruvate (1 mM), nonessential amino acids (0.1 mM), and HEPES buffer (15 mM), pH 7.2-7.5 (all from Invitrogen Life Technologies), plus 50 μM 2-mercaptoethanol (Sigma-Aldrich).
The inventors screened the panel of antibodies specific for BTN2A1, as described above, to identify those able to agonise BTN2A1. The inventors assessed the ability of anti-BTN2A1 antibodies to activate γδ T cells. The inventors assessed upregulation of CD25 on the surface of previously expanded γδ T cells following culturing the cells with 10 μg/ml anti-BTN2A1 antibodies or isotype control antibody (BM4) overnight.
The inventors additionally measured levels of interferon γ secreted by γδ T cells following culture in the presence of 10 μg/ml anti-BTN2A1 antibodies or isotype control antibody (BM4) overnight. Interferon γ secretion is another indicator of TCR-dependent activation.

B1: antibody 259: agonistic anti-BTN2A1 antibody; VL SEQ ID NO: 156, VH SEQ ID NO: 160 (antibody, V domains shown)
VH: EVQLLESGGGLVQPGGSLRLSCAASGFTFSSYAMQWVRQAPGKGLEWVSRIGPSGGGTMYADSVKGRFTISRDNSKNTLYLQMNSLRAEDMAVYYCARDLGGLSVLFDYWGQGTLVTVSS
VL: QSELTQPPSASETPGQRVTISCSGSSSNIGSNTVSWFQQLPGSAPRLLIYNDHRRPSGVPDRFSGSKSGTSASLVISGLQSQDEADYYCSAWDDSLNGVVFGGGTKLTVL
modifications: amino acid sequence of the VH of antibody 259; amino acid sequence of the VL of antibody 259
- CD25 level of expression on γδ T cells in co-culture [1]: upregulated
- level of secreted interferon γ (γδ T cells): increase the level of secreted interferon γ
- percentage of γδ T cells expressing CD25 (γδ T cells): increase the percentage of γδ T cells expressing CD25
